Here are results for one substance from patent US20060073571A1.

In this assay the target is recombinant chimeric hLH-R-hCG-β fusion protein (full-length human lutropin hormone receptor, Arg-Ser linker, full-length human chorionic gonadotropin-β) (human). Briefly: cell-based or functional assay.
Sequence of recombinant chimeric hLH-R-hCG-β fusion protein (full-length human lutropin hormone receptor, Arg-Ser linker, full-length human chorionic gonadotropin-β) (human) (chain, as listed by the source mutant limits assumed): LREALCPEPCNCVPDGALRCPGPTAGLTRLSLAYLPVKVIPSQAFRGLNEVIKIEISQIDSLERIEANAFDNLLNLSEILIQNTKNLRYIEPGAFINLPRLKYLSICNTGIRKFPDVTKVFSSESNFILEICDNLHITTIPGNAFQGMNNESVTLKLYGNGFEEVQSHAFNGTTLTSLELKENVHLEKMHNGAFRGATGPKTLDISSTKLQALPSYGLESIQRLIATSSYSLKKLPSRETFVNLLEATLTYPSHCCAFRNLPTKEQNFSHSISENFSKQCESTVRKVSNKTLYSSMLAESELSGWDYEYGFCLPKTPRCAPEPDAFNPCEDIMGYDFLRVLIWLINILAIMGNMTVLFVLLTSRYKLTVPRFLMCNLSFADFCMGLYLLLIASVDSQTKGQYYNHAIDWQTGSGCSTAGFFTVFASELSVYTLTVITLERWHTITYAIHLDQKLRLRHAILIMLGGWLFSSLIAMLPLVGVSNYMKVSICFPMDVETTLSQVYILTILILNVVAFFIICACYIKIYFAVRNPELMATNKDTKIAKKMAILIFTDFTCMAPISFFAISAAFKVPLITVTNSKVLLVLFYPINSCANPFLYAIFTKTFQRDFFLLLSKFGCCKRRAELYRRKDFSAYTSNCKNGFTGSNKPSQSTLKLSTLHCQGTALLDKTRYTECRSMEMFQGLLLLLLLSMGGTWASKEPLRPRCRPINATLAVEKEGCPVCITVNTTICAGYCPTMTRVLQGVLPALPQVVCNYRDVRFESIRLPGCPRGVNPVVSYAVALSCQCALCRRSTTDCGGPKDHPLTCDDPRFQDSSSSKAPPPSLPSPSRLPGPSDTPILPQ

Regarding “hCG-β component of the chimeric hLH-R-hCG-β protein (full-length human chorionic gonadotropin-β subunit) (from UniProt P0DN86 21-165) (ligand)”, the intracellular cAMP in transfected Sf9 cells in the absence of hCG was 13.2 pmol/L.
